# According to the DeepSol protein solubility set:
# Experiment: soluble on expression in E. coli; label from the status in PepcDB or PDB records
row,Sequence,soluble on expression in E. coli
1,MSLNTSLLILLVASFSSLVLSQNDSKKGGLPKKVHFSFGPAYLRNLTKEEKQQYYAIFGNKDLTIKQQEDQRLAFAEKHGFGQAIKDDIKLKAGNHELIRKERPEIIKNLLAAHEATMKIFDNKDQTLSQREAAVNALKKKYPHAPSTLYYISRLITGNGKHQTPFIKHH,not soluble
2,MAISSRNTLLAALAFIAFQAQAVNVTVAYQTSAEPAKVAQADNTFAKESGATVDWRKFDSGASIVRALASGDVQIGNLGSSPLAVAASQQVPIEVFLLASKLGNSEALVVKKTISKPEDLIGKRIAVPFISTTHYSLLAALKHWGIKPGQVEIVNLQPPAIIAAWQRGDIDGAYVWAPAVNALEKDGKVLTDSEQVGQWGAPTLDVWVVRKDFAEKHPEVVKAFAKSAIDAQQPYIANPDVWLKQPENISKLARLSGVPEGDVPGLVKGNTYLTPQQQTAELTGPVNKAIIDTAQFLKEQGKVPAVANDYSQYVTSRFVQ,soluble
3,MPESIFKQISLDILKLHRDSVYSLLATSGCNCQVHEAAYVNIDGKYYIALSCEPEVGEVKTGILLIEDESRNLRLSWVGSARELDCKDNAYKRALSALSRKLGRCKDRLHTAVQPFLLELVPEKGRFSVGDEEVWISRNDLVRALYPVGYSMRQAVFQI,not soluble
4,LYVFDMDETLINADCAMIWNAFLVEKGIATQPNFIEEDQRLMALYAEGKMDMEDYLEFCMAPLADMPIAHVLMLVEECVEHHILPKQFEQSKTLIAQLDRDDIDMVIISASVTFLVEAVGRRLGIPVALGIDLVEKHGSYSAEIAGVPSYREGKVIRLKAWLDAQPESYSEVHFYTDSINDLPLCEYADYAYLVNPCPQLKARAD,not soluble
5,MDIISLRKSPQYLEEAIAYFQRKWADENSRMVYDNCFRTCLESESPLPQWYLLINGEGEIIGCAGLATNDFNSRMDLYPWLVALFIEEQYRGHNYGNLLIKAVEEDTRRLGFGNLYLCTTHTGYYEHFNFVYIGDCYHPWGEHTR,not soluble
6,MGSDKIHHHHHHMVRTTKFGDLPVLHVFAASQAQTKLPTIIDYHGWTNQTATELGTAYQLVRAGFRVILPTAYLHGSRNDGTDLDRHPEHFWSIVGHSVAEFPQLVAALVAAGISDANKIGVMGTSMGGITAAGIMATQPTVVAGVSLIGSPEPVAFATDQVAQLPAALQAKLPAELIEQTYQQLAKFDLSEHPEALAGRPMFFFNGTADQMVPYQYIRDFKHRFKDEPALKATVFKRAEGGVHHVPHKIQEAAVAFLETNILK,not soluble
7,MSLGQYDMQLIMGRTRWNGEFIGFERSTEKGVFSSNLKTEFMVELAESGGVGVFLNRRRVAALSLDGSRRALEAVLSCQKAFMTAQSDTRDEPSTDTKPKRHTKSSGTGFYVSDSGHIVTNHHVIAECSTINVLPPGGAAVSATLVAKDKTNDLAILKTASSPAAIPGLRSQMRLGEAVYVFGFPLTGILSTSGNFTAGAITATTGMEDDTRLAQISAPVQPGNSGGPLLDKYGNVIGVIVSKLNALNIAAATKDIPQNVNFAIKTGIATNFLDSSGVVPTGKVSTRELAPEAIADLAKIFTVQVLCNEGHHHHHH,not soluble
8,MSAVVITDRHRRILKVNPAFTSISGFSANEVIGKNTFDVLLSESENIDKRLTTWKQVEELGAWQGELDVLSKNKRKLSLLVRIQSVKSKRKATQYYIISYIDITKR,not soluble
9,MGSDKIHHHHHHMEKFGLKALVPLLKLEDKELSSTYDHSMTLGADLSSMLYSLGIPRDSQDHRVLDTFQSPWAETSRSEVEPRFFTPESFTNIPGVLQSTVTPPCFNSIQNDQQRVALFQDETLFFLFYKHPGTVIQELTYLELRKRNWRYHKTLKAWLTKDPMMEPIVSADGLSERGSYVFFDPQRWEKCQRDFLLFYNAIM,not soluble
10,MSLNREAQGSQEGVRIRKARAQDIPIVMEINLESLPENYWYGFYKYILDNWGEAFLVAEVGGEIVGYAMSRVEQTSDPVLLGMKDELEGDKSVIDKILDAIRNQLSEERPVGHLVSIAVRPGFRGRGIGSKLLSATVRVMKNVYRVDAIFLEVRVSNMPAIRLYEKFGFRKVRRIKGYYRDGEDAFVMVKRLLEGHHHHHH,soluble
11,MGSDKIHHHHHHMSQVNALQLTGISKSFDGFKALIDADFTACWGEVHALLGENGAGKSSLMNIAAGLYAPETGTLMLDDNPVQLQGPKDASRYRIGMVHQHFKLVKPFTVAQNILLALPEQPGEGSYRKRLRMLERDIVRKAEELGFAIDPSRVVDSLSVAEQQRVEILKVLLAGARILILDEPTAVLTDQEAERLLLTVQAFARQGAAVILVTHKMADVKRYADRVTVMRGGRTIQTLDPQRVSVEQLVQLTVGESVPVAAHHPAVPGEVRLQVKDLRSVGGSALNGVNMTLRAGQIYGIAGVGGNGQAELANALMGLPQATEGDIHLAPFGDLRNASAEQRRQLRIASIPADRYGAALAGSLSVAENFGIGNIHSGHYGSFWRLGYKRLKQDAQRAVESFDVQGVRSLDQKAALLSGGNAQKLVIAREFSRDPQLVLVHSPSRGLDVRATQAVHDRLRAARDAGAAVLLISEDLDEVLALADRIGVMNGGRIVAEFDHPADRQAIGKAMVSHD,not soluble
12,MVHPAFQVFTDALRQRFGEALDAVVLYGSCLHTSDLTEGIADFYVLVSDYRLAYSGRLLAGLNAWLPPNVFYLEVPAAAGVMRAKYAVISTADFERGARQWFHPYIWARFAQPARLLYARDDQTGKRVHTAQASAVLKFISTTLPVLESGPSDLEMIWASGLMLTYAAELRAEREARARHLVRIDPEIYSRLTAAAMPALIPLLSLQADGRYHIGPITPLKRLSARIHWRLRRWQGRVLSVLRLSKATMTFRDCLDYAAWKIERHTGIKVEITPMLRRHPILWGYKVMWQLLRRGVLRLEHHHHHH,not soluble
13,MDKRISIAIDGPAAAGKSTVAKVVAKKLSYVYIDTGAMYRTITYAALEQKVDIENEEQLMEVVKNVKIEFQQGENTQLVFLNGQDVSEVIRTPEVTNRVSIVAKHRLVREEMVRRQQELAEKGGVVMDGRDIGTHVLPDAEVKIFMLASVEERAERRHLENMNKGFDSNLEQLKEEIAQRDKLDSEREVSPLKKADDALELDTTSLSIEEVVQKIMGIVLGVFAK,not soluble
14,MSTNEAAASQEDIALAQGAVLVKSCQVPDGSIPIRGFDFSTASGPDFSLSAILSSYMSTGFQATHLAQAIQQVNQMLSLRDTPLTCDDDEKLFPYPEGRQKRSCTIFLGYTSNLVTSGLREVLRYCVQRNLVDCIVTSAGGIEEDLIKCLKPSYLGTFTMDGAKLRSNGMNRAGNVLIPNDNYCAFEDWLMPILDECLVEQEEKHLNWTPSKLIQRLGERIGDESSILYWAAKHRIPVFCPALTDGSLGDMLYFHSVKSSPGLRVDIVEDVRHINTIAVKSFKTGSIILGGGVVKHHINNANLMRNGADHTVYINTGQEFDGSDSGAQPDEAVSWGKVKPSAGAVKVHAEATLVFPLLVAETFAKHEGHKD,not soluble
15,FFAAITAAERRCWIASPYFVPDLDILAALKHAALRGVDVRLLVPDEADHTIPWLAAFAYFDEVREAGVRVMRYTDGFLHQKVFVVDDTIAAVGTTNLDNRSFRLNFEAMALFFDATVAGQVTAMLEHDFASSTELTRSLAAQPVFIRYGAPLARLFAPIL,not soluble
16,MSLTYLIKVLELFSGVGSFSISLNTLGIEHEIVGFSETRKTATQLFCKLHNKKESENLGDVRNVSAKDLDVDLLVFGSPCQSFTRAGKQGGGLKGSDTRSALMWEAVRIMEECKPKWIVWENVPDAISRKNMPNFQNYMDELDSLNYNTYYKVLNAHELGSAQKRKRLFSISIRKDIDNGKFEFLDLTREPKHLETYLENNDEGHHHHHH,soluble
17,MFTGFGAASFSAPAKAAAQTNTLSENTNQSAAELVKNLYNTAYKGEMPQQAQGLTINKSTKGDVHAAFGEPERPVGGDNRFDLYHWNMGQPGYGFSYHKDMTISEIRYFGTGVERQLNLGGVTPEVLQKQLGPVNRVLTVPFTDEIDYVYDTGRYELHFVIGTDQTADHVNLKAKLEHHHHHH,soluble
18,MSLENRFDLRCYVVTGAGSVDEVVHTASAAARGGAGVVQVRSKPISPEAMRELASKVALEVARCSPTTRVLIDDHLHVASSLMREGLPIHGVHLGQDDMSVLEARELLGPEAIIGLTTGTLELVAAANELSDVLDYIGAGPFRKTPTKDSGRPPIGLAGYPPLVELSKVPIVAIGDVTPADVRALSATGVAGVAMVRAFSESDDPQQVAENVVANFELGRLSEGHHHHHH,soluble
19,MAHHHHHHMPPSNVRKEEAELRQIAKQARLARKEVQQRERKQRQRERRAAAKNGEAATAAQQTAASSAMRTRGAIILPDEVQELRQRLMGDDAASAASAADSPARKTKKAAARKAARSPAKKSAGAAGASNHGAASSSTLVPTYHQEVHFKKKMFFVDVVLHHVPHQKIDISETNTNRLVVDTCGHTKKYRLVLPYPKGMLCDAAAATYEFENGILQCRLPIMDGAIPASLEAENAKMIEKMRQQRALRFRVTRDGDLTVRTRQALLTQAPAAQAALPEAKKAAAAQRGDDTDSDNEVVNAQAREAKGTEKMASPKSRKRTRDGDEEDSKETPQQTRSVSAKKAKGAAAAVNTLPTEAATASKPAAKKSKPDVFEAEHAKVMEAAKAAAAKVHLSMRERVKLAKAVQASREERLQTRSLRKERKEEQKQQSFHRILEEQKRQLLARASMQQPAPSPTAKVNASAKAVHFADE,soluble
20,MGSDKIHHHHHHMTQPELTPAQRTEVELLARGRADKSRVLRDLKLPETPEAAHALLLRLGVWDEARTPYADRLRAALNAVELPVPDFDPAEERLDLTHLPTFAIDDEGNQDPDDAVGVEDLGGGLTRLWVHVADVAALVAPDSPLDLEARARGATLYLPDRTIGMLPDELVAKAGLGLHEVSPALSICLDLDPDGNAEAVDVLLTRVKVQRLAYQEAQARLEAGEEPFVTLARLARASRRLREGEGALSIDLPEVRVKADETGASVFPLPKPEMRTVVQECMTLAGWGTAIFADDNEIPLPFATQDYPTREVAGDTLPAMWARRKTLARTRFQPSPGPHHGMGLDLYAQATSPMRRYLDLVVHQQLRAFLAGRDPLSSKVMAAHIAESQMNADATRQAERLSRRHHTLRFIAAQPERVWDAVVVDRRGAQATLLIPDLAFDVQVNTPAAPGTALQVQFADIDLPQMRVRARSV,not soluble
21,MDSRPGLRTTSPSSGTRTGRSNTRTLPPDPLLECAGRTRWPFGIREPDEDYPVTIIETEGFLNLVSVSAVALNQPFSLFFGAGVVLIPVRFECMRTPPVPAGRGGRVIRIVKFGIVRHLFSLLAQQVPVVQADGWIVNQNDQKKQNPPKRVKCGCVEDA,not soluble
22,MGHHHHHHSHMVVVAAAPNPADGTPKVLLLSGQPASAAGAPAGQALPLMVPAQRGASPEAASGGLPQARKRQRLTHLSPEEKALRRKLKNRVAAQTARDRKKARMSELEQQVVDLEEENQKLLLENQLLREKTHGLVVENQELRQRLGMDALVAEEEAEAKGNEVRPVAGSAESAALRLRAPLQQVQAQLSPLQNISPWILAVLTLQIQSLISCWAFWTTWTQSCSSNALPQSLPAWRSSQRSTQKDPVPYQPPFLCQWGRHQPSWKPLMN,not soluble
23,QVQLQESGGGLVQAGGSLRLSCAASGSIFSINSMDWDRQAPGKQRELVATITSGGSTNYADSVKGRFTISRDNAKNTVYLQMNSLKPEDTAVYYCNANVKTWAGMTRDYWGQGTQVTVSSHHHHHH,soluble
24,VNKSQLIDKIAAGADISKAAAGRALDAIIASVTESLKEGDDVALVGFGTFAVKERAARTGRNPQTGKEITIAAAKVPSFRAGKALKDAVN,soluble
25,SLKCLVLTGISRNVIEELMRRNIRTIELRSAHNVATALKAEPGDCVFLTPARINDLGRGVSGLVAEVRGKEVMSQSLFYQSPSYIEESELTVVRLMLKPKSLGRLVQVKRGAFLETIEGDVVEMSYFDAR,soluble
